The test concerns the target monoclonal antibody NBH133A1-2B4. As to the kind of experiment: competitive ELISA: standard peptide competes with coated …-K-Biotin for HRP-labelled antibody. (An ELISA detects its analyte on a solid surface through an enzyme-linked reagent.)

B1: standard peptide … (peptide)
peptide: NLLNLNKDKE
In general, IC50 refers to the concentration at which inhibition is half-maximal. The molecule B1 registered an IC50 of 0.0117 µg/mL.

For the origin of these results see patent EP4259652B1.
